Experimental data taken from patent US20100021421A1 (MCGILL UNIVERSITY, published 2010).

How the values were obtained:
[1] = biological target: T1, recombinant mouse IL-15Ralpha-Fc (mouse), Q60819; assay: SPR (BIACORE 3000), rIL-15Rα-Fc amine-coupled to CM5 chip, analyte injected, 1:1 interaction model; rIL-15 as analyte; conditions: remark: other sources report otherwise
T1 chain: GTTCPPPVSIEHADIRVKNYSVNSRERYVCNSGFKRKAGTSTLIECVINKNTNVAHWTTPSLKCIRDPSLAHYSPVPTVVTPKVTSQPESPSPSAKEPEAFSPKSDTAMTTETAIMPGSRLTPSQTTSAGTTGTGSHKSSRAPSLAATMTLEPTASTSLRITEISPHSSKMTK

[2] = biological target: T2, recombinant mouse IL-15Ralpha-Fc (mouse, UniProt Q60819 33-205); assay: SPR (BIACORE 3000), rIL-15Rα-Fc amine-coupled to CM5 chip, analyte injected, 1:1 interaction model; purified GIFT15 as analyte
T2 construct: Bought from R&D Systems and amine-coupled to a CM5 chip (1300 RU); also called rmIL-15Rα-Fc; rIL-15Rα-Fc; not shown: Fc part of the commercial fusion
T2 sequence (looked up): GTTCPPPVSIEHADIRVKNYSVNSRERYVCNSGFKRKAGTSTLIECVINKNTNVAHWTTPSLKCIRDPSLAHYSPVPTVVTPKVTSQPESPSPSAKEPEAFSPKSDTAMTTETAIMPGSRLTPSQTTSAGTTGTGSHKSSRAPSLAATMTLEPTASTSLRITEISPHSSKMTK
Procedure: mGIFT15 was purified by immunoaffinity column packed using CNBr-sepharose (Amersham, N.J., USA) according to manufacturer's instructions. The binding interaction between mGIFT15 and rmIL-15Rα-Fc was examined in real-time using a BIACORE 3000 with research-grade CM5 sensor chips (Biacore AB, Uppsala, Sweden). Based on the manufacturer's recommendations, active CM5 surfaces were prepared by immobilizing rIL-15Rα-Fc (10 μg/mL in 10 mM sodium acetate pH 5.0) using the Amine Coupling Kit (Biacore AB) and HBS-M running buffer. Corresponding reference surfaces were prepared in the similar manner in the absence of any ligand. As a positive control, rIL-15 was injected at 50 μL/min (180 sec association+180 sec dissociation) over the reference and amine-coupled rIL-15Rα-Fc surfaces (1300 RU). Regeneration was achieved using two 30 second pulses of HBS-M containing 0.5 M NaCl, 50 mM EDTA, and 0.05% (v/v) TritonX-100 or Empigen. For the test sample, purified mGIFT15 was injected over the same sensor chip surfaces and regenerated in an identical manner. All binding data presented were “double-referenced” and analyzed according to a 1:1 interaction model using BIAevaluation 4.1 (Biacore AB).

B1: recombinant mouse IL-15, P48346 49-162 (ligand, UniProt P48346 49-162, looked up)
chain: NWIDVRYDLEKIESLIQSIHIDTTLYTDSDFHPSCKVTAMNCFLLELQVILHEYSNMTLNETVRNVLYLANSTLSSNKNVAESGCKECEELEEKTFTEFLQSFIRIVQMFINTS
Work on B1 yielded a Kd [1] of 3 nM.

B2: mouse GM-CSF and IL-15 fusion protein (fusokine) mGIFT15 (ligand)
chain: APTRSPITVTRPWKHVEAIKEALNLLDDMPVTLNEEVEVVSNEFSFKKLTCVQTRLKIFEQGLRGNFTKLKGALNMTASYYQTYCPPTPETDCETQVTTYADFIDSLKTFLTDDPGRRAIMKILKPYMRNTSISCYLCFLLNSHFLTEAGIHVFILGCVSVGLPKTEANWIDVRYDLEKIESLIQSIHIDTTLYTDSDFHPSCKVTAMNCFLLELQVILHEYSNMTLNETVRNVLYLANSTLSSNKNVAESGCKECEELEEKTFTEFLQSFIRIVQMFINTS
notes: also called purified GIFT15; purified mGIFT15
B2 gave a Kd [2] of 1.4 nM.
